How the values were obtained:
[1] = target: T1, human THAP1 (THanatos-Associated-Protein-1), full length (human, UniProt Q9NVV9 1-213); experiment: yeast two-hybrid, both orientations
T1 construct: these tags are not written into the chain; also called hTHAP1; THAP1 wild type
T1 sequence: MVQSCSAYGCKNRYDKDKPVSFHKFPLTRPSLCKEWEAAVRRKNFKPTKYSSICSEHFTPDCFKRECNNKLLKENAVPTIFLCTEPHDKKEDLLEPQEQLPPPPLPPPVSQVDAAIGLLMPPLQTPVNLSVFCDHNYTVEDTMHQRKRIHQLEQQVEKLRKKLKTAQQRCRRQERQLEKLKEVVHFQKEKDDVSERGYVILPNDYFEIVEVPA
Procedure: To identify potential protein partners of THAP1, screening of the two-hybrid HEVEC cDNA library was performed using as a bait the human THAP1 full length cDNA inserted into the […] two-hybrid system 3 vector pGBKT7 (Clontech). Briefly, the full-length coding region of THAP1 was amplified by PCR from HEVEC cDNA with primers 2HMR10 (5′-[…]-3′) (SEQ ID NO: 187) and 2HMR9 (5′-[…]-3′) (SEQ ID NO: 188), digested with EcoRI and BamHI, and cloned in frame downstream of the Gal4 Binding Domain (Gal4-BD) in pGBKT7 vector to generate pGBKT7-THAP1. pGBKT7-THAP1 was then cotransformed with the pGAD424-HEVEC cDNA library in yeast strain AH109 (Clontech). 1.5×10⁷ yeast transformants were screened and positive protein interactions were selected by His and Ade double auxotrophy according to manufacturer's instructions ([…] two-hybrid system 3, Clontech). The plates were incubated at 30° C. for 5 days. Plasmid DNA was extracted from these positive colonies and used to verify the specificity of the interaction by cotransformation in AH109 with pGBKT7-THAP1 or control baits pGBKT7, pGBKT7-lamin and pGBKT7-hevin. […] Positive interaction between THAP1 and Par4 was confirmed using full length Par4 bait (pGBKT-Par4) and prey (pGADT7-Par4). […]

[2] = target: T2, THAP1-C1 deletion mutant (amino acids 90-213) (human, UniProt Q9NVV9 90-213); experiment: in vivo interaction test: GFP-THAP1 mutant and myc-Par4DD co-expressed in primary human endothelial cells, confocal immunofluorescence
T2 construct: Gal4 fusion, in vitro translation product or GFP fusion according to assay; also called THAP1-CL; THAP1ΔTHAP
T2 sequence: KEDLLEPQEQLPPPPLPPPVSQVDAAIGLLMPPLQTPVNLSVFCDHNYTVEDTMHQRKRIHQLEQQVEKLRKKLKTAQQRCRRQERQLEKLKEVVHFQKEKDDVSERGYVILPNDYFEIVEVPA
Description: To provide further evidence for a physiological interaction between THAP1 and Par4 in vivo interactions between THAP1 and PAR4 were investigated. For that purpose, confocal immunofluorescence microscopy was used to analyze the subcellular localization of epitope-tagged Par4DD in primary human endothelial cells transiently cotransfected with pEF-mycPar4DD eukaryotic expression vector and GFP or GFP-THAP1 expression vectors (pEGFP.C2 and pEGFP.C2-THAP1, respectively). To generate pEF-mycPar4DD, mycPar4DD (amino acids 250-342) was amplified by PCR using pGBKT7-Par4DD as template, with primers myc.BD7 (5′-[…]-3′) (SEQ ID NO: 195) and Par4.9 (5′-[…]-3′) (SEQ ID NO: 196), and cloned into the XbaI and NotI sites of the pEF-BOS expression vector (Mizushima and Nagata, Nucleic Acids Research, 18:5322, 1990). Primary human endothelial cells from umbilical vein (HUVEC, PromoCell, Heidelberg, Germany) were grown in complete ECGM medium (PromoCell, Heidelberg, Germany), plated on coverslips and transiently transfected in RPMI medium using GeneJammer transfection reagent according to manufacturer instructions (Stratagene, La Jolla, Calif., USA). Cells co-transfected with pEF-mycPar4DD and GFP-tagged expression constructs were allowed to grow for 24 h to 48 h on coverslips. Cells were washed twice with PBS, fixed for 15 min at room temperature in PBS containing 3.7% formaldehyde, and washed again with PBS prior to neutralization with 50 mM NH₄Cl in PBS for 5 min at room temperature. Following one more PBS wash, cells were permeabilized 5 min at room temperature in PBS containing 0.1% Triton-X100, and washed again with PBS. Permeabilized cells were then blocked with PBS-BSA (PBS with 1% bovine serum albumin) for 10′ and then incubated 2 hr at room temperature with mouse monoclonal antibody anti-myc epitope (mouse IgG1, 1/200, Clontech) diluted in PBS-BSA. Cells were then washed three times 5 min at room temperature in PBS-BSA, and incubated for 1 hr with Cy3 (red fluorescence)-conjugated goat anti-mouse (1/1000, Amersham Pharmacia Biotech) secondary antibodies, diluted in PBS-BSA. After extensive washing in PBS, samples were air dried and mounted in Mowiol. Images were collected on a Leica confocal laser scanning microscope.

B1: Par4 leucine zipper/death domain (Par4DD, amino acids 250-342) (other)
chain: GFPRYNRDANVSGTLVSSSTLEKKIEDLEKEVVTERQENLRLVRLMQDKEEMIGKLKEEIDLLNRDLDDIEDENEQLKQENKTLLKVVGQLTR
notes: Gal4 fusion in two-hybrid; also called myc-Par4DD
What does the source list for B1?
binding result [1]: binds; binding result [2]: binds

From US20060270596A1 (CENTRE NATIONAL DE LA RECHERCHE SCIENTIFIQUE CNRS, published 2006)
